Target: Strep-Tag II peptide WSHPQFEK (SEQ ID NO:9)
Assay: ELISA assay after Friguet et al 1985

B1: monoclonal antibody C23.21 (antibody, V domains shown)
VH: EVQLEQSGPELVKPGASVKMSCKASGYTFTNYYMKWVKQSHGKSLEWIGDLNPNNGDTFYNQKFKGKATLTVDKSSNTAYMQLNSLTSEDSAVYYCARTGRYEENAMDYWGQGTSVTVSS
VL: ELVMTQSPASLAVSLGQRATISCRASESVDSYGKSFMHWYQLKPGQPPKLLIYRASNLESGVPARFSGSGSRTDFTLTIDPVEADDAATYYCQQNNEDPWTFGGGTKLEIK
Kd: 0.14 nM
